Usually Kd stands for the equilibrium constant for the complex coming apart. Low values mean higher affinity, high ones lower affinity.

The text below walks through data of patent US20240166695A1 (University of California, published 2024).

One assay addresses TRPV1. The experiment in a line: cell-based or functional assay.
A further assay has as its target T1, ARD of TRPV1 (Rattus norvegicus (Rat), UniProt O35433 101-364).
T1 construct: Purified from E. coli and immobilised on a CM5 chip by amine coupling; also called TRPV1 ARD; ankyrin repeat-like domain
The assay is described as follows: SPR steady state, ARD immobilised on CM5 chip, design as analyte, 25 C.

T1 sequence (O35433 other isoform, or with tags, fused parts or gaps limits assumed): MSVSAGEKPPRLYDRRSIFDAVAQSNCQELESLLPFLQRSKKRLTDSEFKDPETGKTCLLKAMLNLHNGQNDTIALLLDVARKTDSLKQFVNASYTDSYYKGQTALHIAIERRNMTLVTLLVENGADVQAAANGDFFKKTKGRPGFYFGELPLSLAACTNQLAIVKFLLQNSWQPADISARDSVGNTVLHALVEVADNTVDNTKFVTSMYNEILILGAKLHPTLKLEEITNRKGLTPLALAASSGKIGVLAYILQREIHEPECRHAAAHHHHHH
Experimental for ARD of TRPV1: The purified ARD was immobilized on the CM5 SPR sensor chip by an amine-coupling procedure. SPR experiments were conducted on the Biacore T3000 instrument (GE healthcare). The designed proteins were perfused as analytes. Steady-state SPR responses were measured and used to determine the KD values. In all experiments, the analysis was performed at 25° C., with an association time of 120 see at a flow rate of 20 μL/min.

B1: De1 (designed binder)
chain: NGYSSEDKLRIAKRHLLPKQIERNALKKGELFVSEFAILGIILFYTDEAGVRGLEREISKLCRKAVKQLLLDKSTTSSHASGFHLHDYLGVMR
notes: For SPR: expressed from pET-32a in E. coli BL21(DE3), purified on a Ni column and by HPLC; also called Del; designed protein De1
Take B1: the “EC50 of capsaicin activation of TRPV1 co-expressed with De1 (whole-cell patch clamp)” value with TRPV1 turned out to be 50.9 nM. In the assay with ARD of TRPV1, this molecule displayed a Kd of 26.5 nM.
